Measured values reported in paper PMC9573856 (2022).

Molecular target: T1, 3 × FLAG-aPKC (atypical protein kinase C subtype iota, PKCι), wild type, full length (Homo sapiens (Human), UniProt P41743)
T1 chain: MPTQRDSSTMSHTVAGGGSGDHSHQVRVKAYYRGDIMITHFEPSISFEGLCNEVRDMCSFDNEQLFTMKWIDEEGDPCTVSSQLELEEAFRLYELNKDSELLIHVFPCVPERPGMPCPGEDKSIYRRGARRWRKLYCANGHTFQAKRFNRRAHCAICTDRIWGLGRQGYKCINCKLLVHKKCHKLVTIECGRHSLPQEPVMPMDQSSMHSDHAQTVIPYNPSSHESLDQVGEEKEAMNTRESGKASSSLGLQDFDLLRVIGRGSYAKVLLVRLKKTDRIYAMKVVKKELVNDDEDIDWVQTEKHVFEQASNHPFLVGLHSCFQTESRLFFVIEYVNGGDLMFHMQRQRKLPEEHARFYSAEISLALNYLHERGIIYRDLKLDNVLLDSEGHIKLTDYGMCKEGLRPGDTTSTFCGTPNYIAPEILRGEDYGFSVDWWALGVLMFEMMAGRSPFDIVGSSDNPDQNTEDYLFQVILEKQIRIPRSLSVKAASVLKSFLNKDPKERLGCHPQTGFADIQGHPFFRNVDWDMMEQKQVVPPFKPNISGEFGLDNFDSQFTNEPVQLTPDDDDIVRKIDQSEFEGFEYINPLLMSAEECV
Test: co-expression, FLAG co-purification, SEC and glycerol gradient

binding result: binds
B1: PAR6 (PAR6α), untagged, full length (protein)
chain: MARPQRTPARSPDSIVEVKSKFDAEFRRFALPRASVSGFQEFSRLLRAVHQIPGLDVLLGYTDAHGDLLPLTNDDSLHRALASGPPPLRLLVQKREADSSGLAFASNSLQRRKKGLLLRPVAPLRTRPPLLISLPQDFRQVSSVIDVDLLPETHRRVRLHKHGSDRPLGFYIRDGMSVRVAPQGLERVPGIFISRLVRGGLAESTGLLAVSDEILEVNGIEVAGKTLDQVTDMMVANSHNLIVTVKPANQRNNVVRGASGRLTGPPSAGPGPAEPDSDDDSSDLVIENRQPPSSNGLSQGPPCWDLHPGCRHPGTRSSLPSLDDQEQASSGWGSRIRGDGSGFSL
